Measured values reported in US20040258688A1.

Biological target: murine DEC-205 (mouse) (UniProt Q60767)
Assay: Alexa488-conjugated antibody (10 µg) injected s.c.; flow cytometry of CD11c+ cells

Sequence of UniProt Q60767 (Q60767 28-1723 S1283P limits assumed): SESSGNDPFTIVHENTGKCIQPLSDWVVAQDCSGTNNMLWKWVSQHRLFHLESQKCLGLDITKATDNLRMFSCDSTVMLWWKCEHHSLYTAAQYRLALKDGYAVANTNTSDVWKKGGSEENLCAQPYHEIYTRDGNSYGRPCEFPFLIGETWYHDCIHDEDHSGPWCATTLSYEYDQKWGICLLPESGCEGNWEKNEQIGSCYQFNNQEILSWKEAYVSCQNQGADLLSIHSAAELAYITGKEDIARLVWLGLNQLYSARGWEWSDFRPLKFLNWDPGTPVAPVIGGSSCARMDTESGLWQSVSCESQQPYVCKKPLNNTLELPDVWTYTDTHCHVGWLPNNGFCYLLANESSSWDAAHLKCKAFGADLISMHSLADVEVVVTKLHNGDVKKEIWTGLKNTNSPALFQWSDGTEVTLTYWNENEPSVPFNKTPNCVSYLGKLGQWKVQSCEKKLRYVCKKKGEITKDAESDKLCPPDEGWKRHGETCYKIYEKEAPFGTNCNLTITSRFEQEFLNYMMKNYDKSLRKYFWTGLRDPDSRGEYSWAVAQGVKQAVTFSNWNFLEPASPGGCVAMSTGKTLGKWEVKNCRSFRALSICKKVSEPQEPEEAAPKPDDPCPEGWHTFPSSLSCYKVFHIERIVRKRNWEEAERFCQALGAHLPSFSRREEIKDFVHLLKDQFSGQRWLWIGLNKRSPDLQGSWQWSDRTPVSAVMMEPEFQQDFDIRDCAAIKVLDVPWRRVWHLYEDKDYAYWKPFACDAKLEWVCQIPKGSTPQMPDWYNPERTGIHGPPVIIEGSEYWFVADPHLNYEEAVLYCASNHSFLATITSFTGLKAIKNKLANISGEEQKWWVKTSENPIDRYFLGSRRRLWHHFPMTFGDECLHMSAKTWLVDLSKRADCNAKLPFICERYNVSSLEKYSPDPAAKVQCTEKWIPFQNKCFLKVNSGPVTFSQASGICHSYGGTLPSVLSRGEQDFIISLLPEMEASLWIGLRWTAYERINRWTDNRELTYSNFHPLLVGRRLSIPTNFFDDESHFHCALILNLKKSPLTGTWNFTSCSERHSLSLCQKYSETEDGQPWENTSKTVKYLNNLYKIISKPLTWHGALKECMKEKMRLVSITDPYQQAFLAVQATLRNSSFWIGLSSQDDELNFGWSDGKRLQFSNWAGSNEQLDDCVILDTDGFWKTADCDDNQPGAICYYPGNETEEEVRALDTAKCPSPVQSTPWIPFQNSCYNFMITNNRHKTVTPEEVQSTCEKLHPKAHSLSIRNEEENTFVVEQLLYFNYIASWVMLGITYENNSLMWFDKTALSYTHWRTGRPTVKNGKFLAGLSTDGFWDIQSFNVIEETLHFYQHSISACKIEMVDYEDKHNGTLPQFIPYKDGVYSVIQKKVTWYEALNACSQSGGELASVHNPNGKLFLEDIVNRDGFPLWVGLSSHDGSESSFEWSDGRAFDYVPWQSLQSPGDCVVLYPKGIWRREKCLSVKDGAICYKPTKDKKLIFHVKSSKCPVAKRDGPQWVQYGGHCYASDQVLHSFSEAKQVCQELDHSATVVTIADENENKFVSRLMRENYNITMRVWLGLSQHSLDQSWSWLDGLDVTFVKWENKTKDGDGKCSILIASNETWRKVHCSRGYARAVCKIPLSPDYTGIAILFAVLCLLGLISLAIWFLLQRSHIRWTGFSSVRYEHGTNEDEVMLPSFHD

- percent of distal lymph node DCs loaded with injected antibody at 6 hrs: 40%
- percent of draining lymph node DCs loaded with injected antibody at 6 hrs: > 50%
- percent of spleen DCs loaded with injected antibody at 6 hrs: 30%
Substance: NLDC-145 monoclonal antibody to DEC-205
